Results from PMC3724350.

What was measured:
[1] = biological target: Shewanella oneidensis diheme cytochrome c peroxidase, tag-free (Shewanella oneidensis); test: SEC
[2] = biological target: Shewanella oneidensis diheme cytochrome c peroxidase, maltose-binding protein fusion (Shewanella oneidensis); test: SEC

Substance | stoichiometry N [1] | stoichiometry N [2]
Shewanella oneidensis diheme cytochrome c peroxidase, tag-free (enzyme) | 2 | 
Shewanella oneidensis diheme cytochrome c peroxidase, maltose-binding protein fusion (enzyme) |  | 2
